The results in this text go back to paper doi:10.1101/2023.04.24.538112.

For the assay, the target named is Full-length (FL) BRAF purified from HEK293F cells (UniProt P15056). Kind of assay: SPR; OpenSPR; His/MBP-NT1-4 or FL-BRAF immobilised on Ni-NTA sensor, KRAS-GMPPNP (GST-tagged or untagged) or GST alone flowed at 30 μL/min for 10 min; 20 mM HEPES pH 7.4, 150 mM NaCl, 0.23% glycerol, 0.05% Tween-20, 1% BSA; 1:1 fit.
Chain of Full-length (FL) BRAF purified from HEK293F cells (P15056 whole entry): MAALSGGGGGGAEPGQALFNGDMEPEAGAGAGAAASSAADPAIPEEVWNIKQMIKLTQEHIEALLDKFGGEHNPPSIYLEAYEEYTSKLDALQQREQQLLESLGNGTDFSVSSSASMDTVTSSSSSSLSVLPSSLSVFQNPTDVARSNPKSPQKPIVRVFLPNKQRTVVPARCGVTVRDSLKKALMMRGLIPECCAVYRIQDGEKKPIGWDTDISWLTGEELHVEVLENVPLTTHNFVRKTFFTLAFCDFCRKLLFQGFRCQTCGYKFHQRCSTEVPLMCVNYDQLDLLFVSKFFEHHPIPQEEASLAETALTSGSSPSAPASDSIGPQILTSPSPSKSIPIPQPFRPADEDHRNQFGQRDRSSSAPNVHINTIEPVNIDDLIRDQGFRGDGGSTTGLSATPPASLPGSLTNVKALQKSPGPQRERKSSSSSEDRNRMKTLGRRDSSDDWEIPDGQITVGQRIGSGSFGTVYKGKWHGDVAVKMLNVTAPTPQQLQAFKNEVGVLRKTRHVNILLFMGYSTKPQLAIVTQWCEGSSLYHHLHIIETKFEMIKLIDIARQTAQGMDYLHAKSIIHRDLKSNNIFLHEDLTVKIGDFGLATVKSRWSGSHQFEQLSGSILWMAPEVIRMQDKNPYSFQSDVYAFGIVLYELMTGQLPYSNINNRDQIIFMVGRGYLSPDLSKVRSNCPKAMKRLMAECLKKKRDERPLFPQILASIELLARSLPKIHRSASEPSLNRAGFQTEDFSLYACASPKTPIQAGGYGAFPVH

In the case of “GST-tagged, dimeric full-length KRAS4b (from UniProt P01116-2 1-188) (natural protein)”, the Kd was 101 nM.
